How the values were obtained:
astrocytes = assay: Filipin staining of astrocytes; type: cell-based, rat; details: about 5 h
Experimental: (§1) Leptin was detected using a rabbit polyclonal antibody raised against mouse leptin, corss-reacting with human leptin (obtained from Dr. A. F. Parlow, Harbor-UCLA, CA). Immunofluorescent confocal microscopy was performed on 2% paraformaldehyde-fixed primary neural cells. Filipin staining was performed as described (Feng et al., Nat Cell Biol. 5:781-92 (2003)).
(§2) Neural cultures from ε15 rat cerebral cortex were processed for enrichment of neurons (a-d) or astrocytes (e-h) as described (Takeshima et al., J. Neurosci. Methods 67: 27-41 (1996)). After about 7 days to about 10 days in culture, cultures were treated for about 5 h with about 10 μg/ml cholesterol (b, f) or about 400 ng/ml leptin plus cholesterol (c, g) or leptin alone (d, h). Controls (a, e) were treated with culture media alone. Filipin staining was performed as described (Feng et al., Nat. Cell Biol. 5: 781-92 (2003)). Neurons (i-k) and astrocytes (l-n) prepared as above were treated with 0 μM (i, l), 5 μM (j, m) or 10 μM cholesterol (k, n) for 5 h. Immunostaining was performed for leptin (A.F.Parlow, Harbor-UCLA, CA).

primary neurons = assay: Filipin staining of primary neurons; type: cell-based, rat; details: about 5 h
Experimental: as §1, §2

SY5Y cells = assay: Aβ production by SY5Y cells; type: cell-based, human; details: total Aβ in conditioned media, 5 h; concentration (TOFA 200 μM, cerulenin 200 μM, etomoxir 40 μM, peptide YY (3-36) 25 μM, CNTF 25 μM, leptin 400 ng/ml); mean ± SEM; NS = non-significant
Description: Cell cultures, Treatments, Antibodies and Immunoassays. SY5Y cells (human neuroblastoma) were maintained in culture as described (Johnsingh et al., FEBS Lett. 465:53-8 (2000)). Primary neural cultures were obtained from ε16 rat embryonic cortex, as described (Shimoda et al., 1992. Brain Res. 586:319-31 (1992)). These were either grown as mixed cultures (Johnsingh et al., FEBS Lett. 465:53-8 (2000)) or grown under conditions that favor the isolation and proliferation of astrocytes (Takeshima et al., J Neurosci. 14:4769-79 (1994)).
SY5Y and hyg-sa134-Neuro2a cells were treated at 80% confluency (see below). Primary neural cultures from mouse embryos were allowed to grow for 6-12 days following plating and prior to viral infection and treatments.
About 100 ng/ml or about 400 ng/ml leptin (Harbor-UCLA, CA), was added in cell culture medium for 2 or 5 h. Cells were approximately 80% confluent at the time of treatment. Peptide YY (3-36) (Phoenix Pharmaceuticals, Inc., CA), and CNTF (Sigma-Aldrich, Mo.) were added at about 25 μM or 150 μM for the same incubation periods. TOFA, etomoxir (Research Biochemicals International, MA) and cerulenin (Sigma-Aldrich, Mo.) were used as described below.
For the determination of Aβ peptide several methodologies also were used. SY5Y cells in culture were metabolically labeled with ^35S-[Met] as described (Figueiredo-Pereira et al. J Neurochem. 72:1417-22 (1999)), followed by immunoprecipitation, resolution of the immunoprecipitates on SDS-PAGE, autoradiography, and densitometric analysis of the autoradiogram. Neuro2a cells were stably transfected with hyg-sa134 (K. Sambamurti, S. Carolina Medical Center, SC) and Aβ40 (SEQ ID NO: 4) plus Aβ42 (SEQ ID NO: 5) plus Aβ43 (SEQ ID NO: 6) (Total Aβ) in the medium then was quantified by sandwich ELISAs developed with 4G8 and 6 ε10 monoclonal antibodies (Signet, Mass.) as described (Figueiredo-Pereira et al., J Neurochem. 72:1417-22 (1999)). Commercially available ELISA kits (KMI Diagnostics, MN) were used for the separate determination of Aβ40 (SEQ ID NO:4) and Aβ42/43 (SEQ ID NO:5/SEQ ID NO:6) in formic acid extracts of mice brains. Flotillin was detected using monoclonal anti-flotillin-1 antibodies (BD Biosciences, CA). Actin was detected using monoclonal anti-actin antibodies (Research Diagnostics, Inc, NJ).
Human (SYSY) or mouse neuroblastoma cell-lines (Neuro2a) commonly are used to study amyloid β metabolism in vitro. Neuro2a cells are stably transfected with hyg-sa134 (SEQ ID NO: 11), a plasmid driving the expression of a recombinant fusion protein containing the human C-terminal fragment of APP of about 134 amino acids, CAPP134 (SEQ ID NO: 10). Here, 5Y5Y or Neuro2a cultures were treated for 2 or 5 h with about 100 ng/ml or about 400 ng/ml leptin (FIG. 4a, 4b). Similarly, primary neurons from embryonic rat brain, infected with an adenovirus to direct the expression of CAPP134 (SEQ ID NO:10) also were treated according to the same regimen.

B1: Leptin: peptide hormone controlling adaptive metabolic mechanisms to energy availability; leptin (Harbor-UCLA) in vitro, recombinant murine leptin in mice (protein, UniProt P41160 22-167, looked up)
Leptin: VPIQKVQDDTKTLIKTIVTRINDISHTQSVSAKQRVTGLDFIPGLHPILSLSKMDQTLAVYQQVLTSLPSQNVLQIANDLENLRDLLHLLAFSKSCSLPQTSGLQKPESLDGVLEASLYSTEVVALSRLQGSLQDILQQLDVSPEC
B1 was tested, and the filipin labelling (astrocytes; about 400 ng/ml leptin) was “diminished filipin labelling”, the “increase in filipin labelling by cholesterol” value (astrocytes; leptin about 400 ng/ml plus cholesterol about 10 μg/ml) was “prohibited an increase” and the “increase in filipin labelling by cholesterol” value (primary neurons; neurons, leptin about 400 ng/ml plus cholesterol about 10 μg/ml) was “prohibited an increase”. For the same molecule, the filipin labelling (primary neurons; primary neurons, about 400 ng/ml leptin) was “diminished filipin labelling” and the “SY5Y Aβ (% control)” value (SY5Y cells) was 38 ± 7 % control.
